Data reported in US20180092966A1 (CSL, published 2018).

What was measured:
[1] = biological target: T1, VWF-FP R768C mutant (albumin-fused von Willebrand Factor) (human); assay: covalent-FVIII ELISA over FVIII activity assay
T1 construct: Stably expressed in CHO cells with furin co-transfected; also called VWF-FP mutant R768C; Cys residue at VWF aa position 768; not shown: linker between VWF and albumin, made in analogy to WO 2009/156137

[2] = biological target: T2, VWF-FP K1116C mutant (albumin-fused von Willebrand Factor) (human); assay: covalent-FVIII ELISA over FVIII activity assay
T2 construct: Stably expressed in CHO cells with furin co-transfected; also called VWF-FP mutant K1116C; Cys residue at VWF aa position 1116; not shown: linker between VWF and albumin, made in analogy to WO 2009/156137

[3] = biological target: T1, VWF-FP R768C mutant (albumin-fused von …); assay: ELISA of co-expression supernatant: anti-VWF capture, 350 mM CaCl2 wash, anti-FVIII detection
Description: (§1) Cell culture supernatant samples (10 ml) from transient transfections were concentrated with Amicon Ultracell-30K (Millipore UFC903024; 3000 g centrifugation). FVIII covalently attached to VWF-FP in culture supernatant (concentrates) was determined by a standard ELISA. Briefly, microplates were incubated with 100 μL per well of the capture antibody (rabbit anti human VWF-IgG, Dako A0082 [Dako, Hamburg, Germany], diluted 1:2000 in buffer A [Sigma C3041, Sigma-Aldrich, Munich, Germany]) overnight at ambient temperature. After washing plates three times with buffer B (Sigma T9039), each well was incubated with 200 μL buffer C (Sigma T6789) for 1.5 hours at ambient temperature (blocking). After another three wash steps with buffer B, serial dilutions of the test sample in buffer B as well as serial dilutions of a control preparation of covalently linked FVIII-VWF-FP, (2.0-0.03 arbitrary U/ml in buffer B (we call these “arbitrary units” as they may not correspond to the standard FVIII units as determined using Standard Human Plasma); volumes per well: 100 μL) were incubated for 1.5 hours at ambient temperature. After three wash steps with buffer B, 200 μL of 350 mM CaCl₂ were added to each well and incubated for 1 hour at ambient temperature. CaCl₂ was removed (without washing) and additional 200 μl were added to each well and incubated further for 1 hour. After three wash steps with buffer B 100 μL of a 1:2 dilution in buffer B of the detection antibody (Detecting Antibody for FVIII:C, peroxidase labelled, Cedarlane CL20035K-D) were added to each well and incubated for 1 hour at ambient temperature. After three wash steps with buffer B, 100 μL of substrate solution (OUVF, Siemens Healthcare Diagnostics) were added per well and incubated for 15 minutes at ambient temperature in the dark. Addition of 100 μL undiluted stop dilution (OSFA, Siemens Healthcare Diagnostics) prepared the samples for reading in a suitable microplate reader at 450 nm wavelength. Concentrations of the test samples were then calculated using the standard curve with the control preparation.

[4] = biological target: T2, VWF-FP K1116C mutant (albumin-fused von …); assay: as above
Description: as §1

[5] = biological target: T1, VWF-FP R768C mutant (albumin-fused von …); assay: covalent-FVIII ELISA over FVIII antigen ELISA
[6] = biological target: T2, VWF-FP K1116C mutant (albumin-fused von …); assay: covalent-FVIII ELISA over FVIII antigen ELISA

T2 sequence (chain, as listed by the source K1116C K1116C): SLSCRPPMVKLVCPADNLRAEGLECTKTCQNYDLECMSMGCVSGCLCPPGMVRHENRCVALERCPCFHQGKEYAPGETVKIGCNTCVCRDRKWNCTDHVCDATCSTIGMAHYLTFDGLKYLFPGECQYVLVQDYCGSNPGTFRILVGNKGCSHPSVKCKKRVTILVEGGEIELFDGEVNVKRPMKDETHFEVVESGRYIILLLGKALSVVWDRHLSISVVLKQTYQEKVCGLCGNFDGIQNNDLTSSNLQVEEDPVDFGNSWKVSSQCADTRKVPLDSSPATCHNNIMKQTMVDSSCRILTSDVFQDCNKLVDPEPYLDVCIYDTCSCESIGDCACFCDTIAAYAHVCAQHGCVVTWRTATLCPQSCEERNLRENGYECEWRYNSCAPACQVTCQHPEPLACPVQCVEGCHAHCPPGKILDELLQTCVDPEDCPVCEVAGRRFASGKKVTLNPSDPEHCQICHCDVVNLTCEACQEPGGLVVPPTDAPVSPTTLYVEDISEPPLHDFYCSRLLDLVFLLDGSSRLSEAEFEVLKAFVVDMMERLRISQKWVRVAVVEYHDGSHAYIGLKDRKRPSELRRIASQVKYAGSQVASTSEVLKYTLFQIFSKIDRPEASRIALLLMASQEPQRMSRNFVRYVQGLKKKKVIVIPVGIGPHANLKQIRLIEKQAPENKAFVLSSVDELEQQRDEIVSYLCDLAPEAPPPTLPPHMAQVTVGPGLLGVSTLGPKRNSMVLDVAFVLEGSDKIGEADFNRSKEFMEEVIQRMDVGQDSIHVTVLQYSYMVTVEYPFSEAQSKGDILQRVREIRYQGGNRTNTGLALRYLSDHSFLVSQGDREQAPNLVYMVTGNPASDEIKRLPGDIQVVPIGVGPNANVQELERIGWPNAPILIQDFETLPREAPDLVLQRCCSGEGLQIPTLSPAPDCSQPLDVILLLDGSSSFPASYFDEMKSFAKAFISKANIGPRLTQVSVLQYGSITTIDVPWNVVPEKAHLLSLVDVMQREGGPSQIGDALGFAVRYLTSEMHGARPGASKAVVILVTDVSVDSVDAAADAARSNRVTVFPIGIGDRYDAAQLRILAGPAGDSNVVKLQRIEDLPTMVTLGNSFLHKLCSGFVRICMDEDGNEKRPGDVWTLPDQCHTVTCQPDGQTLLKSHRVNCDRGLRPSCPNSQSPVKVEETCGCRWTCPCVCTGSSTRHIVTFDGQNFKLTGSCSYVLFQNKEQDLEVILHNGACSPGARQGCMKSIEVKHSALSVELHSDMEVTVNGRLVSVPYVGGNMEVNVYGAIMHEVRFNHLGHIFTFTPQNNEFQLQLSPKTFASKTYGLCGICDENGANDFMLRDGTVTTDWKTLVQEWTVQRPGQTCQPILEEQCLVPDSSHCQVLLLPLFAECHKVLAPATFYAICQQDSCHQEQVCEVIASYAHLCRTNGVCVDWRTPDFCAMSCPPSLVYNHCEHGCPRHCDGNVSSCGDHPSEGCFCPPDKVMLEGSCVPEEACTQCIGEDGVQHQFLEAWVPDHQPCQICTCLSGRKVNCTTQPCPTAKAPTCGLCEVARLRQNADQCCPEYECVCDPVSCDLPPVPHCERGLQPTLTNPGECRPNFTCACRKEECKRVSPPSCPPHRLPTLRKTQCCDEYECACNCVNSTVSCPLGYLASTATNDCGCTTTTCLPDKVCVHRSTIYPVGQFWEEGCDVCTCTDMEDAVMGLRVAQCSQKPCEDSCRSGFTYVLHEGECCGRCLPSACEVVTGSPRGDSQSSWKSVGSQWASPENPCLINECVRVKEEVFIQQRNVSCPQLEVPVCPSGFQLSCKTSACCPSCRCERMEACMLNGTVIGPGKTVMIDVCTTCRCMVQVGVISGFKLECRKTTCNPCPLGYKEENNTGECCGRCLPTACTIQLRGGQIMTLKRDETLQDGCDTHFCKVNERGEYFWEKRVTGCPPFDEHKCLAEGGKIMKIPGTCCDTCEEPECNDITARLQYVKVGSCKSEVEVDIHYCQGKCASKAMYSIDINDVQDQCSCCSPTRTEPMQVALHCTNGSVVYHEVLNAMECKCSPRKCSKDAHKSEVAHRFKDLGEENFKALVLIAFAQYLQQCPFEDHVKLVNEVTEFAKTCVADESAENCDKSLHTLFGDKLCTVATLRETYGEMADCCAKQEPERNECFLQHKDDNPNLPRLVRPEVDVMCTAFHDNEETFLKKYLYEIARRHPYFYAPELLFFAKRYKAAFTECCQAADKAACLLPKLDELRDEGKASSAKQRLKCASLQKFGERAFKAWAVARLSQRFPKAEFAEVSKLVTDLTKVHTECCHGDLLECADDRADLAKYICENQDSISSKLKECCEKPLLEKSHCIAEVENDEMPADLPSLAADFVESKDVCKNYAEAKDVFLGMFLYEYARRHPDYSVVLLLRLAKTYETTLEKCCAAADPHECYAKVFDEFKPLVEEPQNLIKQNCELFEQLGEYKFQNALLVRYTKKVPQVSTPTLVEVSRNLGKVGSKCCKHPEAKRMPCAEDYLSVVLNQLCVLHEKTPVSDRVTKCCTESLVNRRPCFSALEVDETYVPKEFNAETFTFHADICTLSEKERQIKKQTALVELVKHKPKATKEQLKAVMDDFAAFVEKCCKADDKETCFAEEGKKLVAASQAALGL
T1 sequence (chain, as listed by the source R768C R768C): as the sequence (chain, as listed by the source K1116C K1116C) above, with R5C, C353K counted along it

B1: Factor VIII SingleChain D1683C mutant (other)
chain: ATRRYYLGAVELSWDYMQSDLGELPVDARFPPRVPKSFPFNTSVVYKKTLFVEFTDHLFNIAKPRPPWMGLLGPTIQAEVYDTVVITLKNMASHPVSLHAVGVSYWKASEGAEYDDQTSQREKEDDKVFPGGSHTYVWQVLKENGPMASDPLCLTYSYLSHVDLVKDLNSGLIGALLVCREGSLAKEKTQTLHKFILLFAVFDEGKSWHSETKNSLMQDRDAASARAWPKMHTVNGYVNRSLPGLIGCHRKSVYWHVIGMGTTPEVHSIFLEGHTFLVRNHRQASLEISPITFLTAQTLLMDLGQFLLFCHISSHQHDGMEAYVKVDSCPEEPQLRMKNNEEAEDYDDDLTDSEMDVVRFDDDNSPSFIQIRSVAKKHPKTWVHYIAAEEEDWDYAPLVLAPDDRSYKSQYLNNGPQRIGRKYKKVRFMAYTDETFKTREAIQHESGILGPLLYGEVGDTLLIIFKNQASRPYNIYPHGITDVRPLYSRRLPKGVKHLKDFPILPGEIFKYKWTVTVEDGPTKSDPRCLTRYYSSFVNMERDLASGLIGPLLICYKESVDQRGNQIMSDKRNVILFSVFDENRSWYLTENIQRFLPNPAGVQLEDPEFQASNIMHSINGYVFDSLQLSVCLHEVAYWYILSIGAQTDFLSVFFSGYTFKHKMVYEDTLTLFPFSGETVFMSMENPGLWILGCHNSDFRNRGMTALLKVSSCDKNTGDYYEDSYEDISAYLLSKNNAIEPRSFSQNSRHRSTRQKQFNATTIPENTTLQSDQEEIDYDDTISVEMKKEDFDIYDECENQSPRSFQKKTRHYFIAAVERLWDYGMSSSPHVLRNRAQSGSVPQFKKVVFQEFTDGSFTQPLYRGELNEHLGLLGPYIRAEVEDNIMVTFRNQASRPYSFYSSLISYEEDQRQGAEPRKNFVKPNETKTYFWKVQHHMAPTKDEFDCKAWAYFSDVDLEKDVHSGLIGPLLVCHTNTLNPAHGRQVTVQEFALFFTIFDETKSWYFTENMERNCRAPCNIQMEDPTFKENYRFHAINGYIMDTLPGLVMAQDQRIRWYLLSMGSNENIHSIHFSGHVFTVRKKEEYKMALYNLYPGVFETVEMLPSKAGIWRVECLIGEHLHAGMSTLFLVYSNKCQTPLGMASGHIRDFQITASGQYGQWAPKLARLHYSGSINAWSTKEPFSWIKVDLLAPMIIHGIKTQGARQKFSSLYISQFIIMYSLDGKKWQTYRGNSTGTLMVFFGNVDSSGIKHNIFNPPIIARYIRLHPTHYSIRSTLRMELMGCDLNSCSMPLGMESKAISDAQITASSYFTNMFATWSPSKARLHLQGRSNAWRPQVNNPKEWLQVDFQKTMKVTGVTTQGVKSLLTSMYVKEFLISSSQDGHQWTLFFQNGKVKVFQGNQDSFTPVVNSLDPPLLTRYLRIHPQSWVHQIALRMEVLGCEAQDLY
notes: Single-chain FVIII with partial B-domain deletion; also called FVIII-SC D1683C; Cys residue at FVIII aa position 1683
With B1 the “ratio covalent FVIII/Total FVIII activity” value [1] was 4.07, the “ratio covalent FVIII/Total FVIII activity” value [2] was 0.42 and the “covalent FVIII” value [3] was 2210 amU/ml. For the same binder, the “covalent FVIII” value [4] was 1350 amU/ml, the “ratio covalent FVIII/Total FVIII antigen” value [5] was 3.07 and the “ratio covalent FVIII/Total FVIII antigen” value [6] was 1.76.

B2: Factor VIII SingleChain E1682C mutant (other)
chain: ATRRYYLGAVELSWDYMQSDLGELPVDARFPPRVPKSFPFNTSVVYKKTLFVEFTDHLFNIAKPRPPWMGLLGPTIQAEVYDTVVITLKNMASHPVSLHAVGVSYWKASEGAEYDDQTSQREKEDDKVFPGGSHTYVWQVLKENGPMASDPLCLTYSYLSHVDLVKDLNSGLIGALLVCREGSLAKEKTQTLHKFILLFAVFDEGKSWHSETKNSLMQDRDAASARAWPKMHTVNGYVNRSLPGLIGCHRKSVYWHVIGMGTTPEVHSIFLEGHTFLVRNHRQASLEISPITFLTAQTLLMDLGQFLLFCHISSHQHDGMEAYVKVDSCPEEPQLRMKNNEEAEDYDDDLTDSEMDVVRFDDDNSPSFIQIRSVAKKHPKTWVHYIAAEEEDWDYAPLVLAPDDRSYKSQYLNNGPQRIGRKYKKVRFMAYTDETFKTREAIQHESGILGPLLYGEVGDTLLIIFKNQASRPYNIYPHGITDVRPLYSRRLPKGVKHLKDFPILPGEIFKYKWTVTVEDGPTKSDPRCLTRYYSSFVNMERDLASGLIGPLLICYKESVDQRGNQIMSDKRNVILFSVFDENRSWYLTENIQRFLPNPAGVQLEDPEFQASNIMHSINGYVFDSLQLSVCLHEVAYWYILSIGAQTDFLSVFFSGYTFKHKMVYEDTLTLFPFSGETVFMSMENPGLWILGCHNSDFRNRGMTALLKVSSCDKNTGDYYEDSYEDISAYLLSKNNAIEPRSFSQNSRHRSTRQKQFNATTIPENTTLQSDQEEIDYDDTISVEMKKEDFDIYDCDENQSPRSFQKKTRHYFIAAVERLWDYGMSSSPHVLRNRAQSGSVPQFKKVVFQEFTDGSFTQPLYRGELNEHLGLLGPYIRAEVEDNIMVTFRNQASRPYSFYSSLISYEEDQRQGAEPRKNFVKPNETKTYFWKVQHHMAPTKDEFDCKAWAYFSDVDLEKDVHSGLIGPLLVCHTNTLNPAHGRQVTVQEFALFFTIFDETKSWYFTENMERNCRAPCNIQMEDPTFKENYRFHAINGYIMDTLPGLVMAQDQRIRWYLLSMGSNENIHSIHFSGHVFTVRKKEEYKMALYNLYPGVFETVEMLPSKAGIWRVECLIGEHLHAGMSTLFLVYSNKCQTPLGMASGHIRDFQITASGQYGQWAPKLARLHYSGSINAWSTKEPFSWIKVDLLAPMIIHGIKTQGARQKFSSLYISQFIIMYSLDGKKWQTYRGNSTGTLMVFFGNVDSSGIKHNIFNPPIIARYIRLHPTHYSIRSTLRMELMGCDLNSCSMPLGMESKAISDAQITASSYFTNMFATWSPSKARLHLQGRSNAWRPQVNNPKEWLQVDFQKTMKVTGVTTQGVKSLLTSMYVKEFLISSSQDGHQWTLFFQNGKVKVFQGNQDSFTPVVNSLDPPLLTRYLRIHPQSWVHQIALRMEVLGCEAQDLY
notes: Single-chain FVIII with partial B-domain deletion; also called FVIII-SC E1682C; Cys residue at FVIII aa position 1682
B2 was tested, and the “ratio covalent FVIII/Total FVIII activity” value [1] was 2.11, the “ratio covalent FVIII/Total FVIII activity” value [2] was 0.34 and the “covalent FVIII” value [3] was 328 amU/ml. For the same binder, the “covalent FVIII” value [4] was 488 amU/ml, the “ratio covalent FVIII/Total FVIII antigen” value [5] was 2.23 and the “ratio covalent FVIII/Total FVIII antigen” value [6] was 1.23.
